Data set [1] addresses T1, SNAP tagged septin rod labeled with BG-biotin (S. cerevisiae, UniProt P32458 1-415; P32468 1-407; P32457 1-520; P25342 1-322, biotin, covalently attached with BG-Biotin to the SNAP tag).
T1 construct: Cdc11, S. cerevisiae septin; ORF amplified by PCR from genomic DNA; Cdc12, S. cerevisiae septin; Cdc3, S. cerevisiae septin; Cdc10, S. cerevisiae septin; calculated molecular weight 432.5 kDa; also called septin rods; biotinylated septin rods; source: E. coli BL21(DE3), four subunits co-expressed, purified (IMAC, Resource Q anion exchange), labeled with BG-Biotin; not shown: S tag, N-terminal, …
Description: SPR; same dataset as a8; sensograms fitted with a two state reaction model (to compensate for background binding of Bni5 to the antibody-coated surface); contact 120 or 180 s, dissociation 600 s. The following applies: both partners purified. Background: Surface plasmon resonance follows binding to a sensor surface in real time, without labels.

In data set [2] the target is T1, SNAP tagged septin rod labeled with …. Description: SPR; Biacore X100; biotinylated SNAP tagged septin rods captured (about 100 RU) on an anti-biotin antibody coated CM5 chip; Bni5 0-1600 nM as analyte in MSP buffer (10 mM MES, 150 mM NaCl, 0.05% Tween 20, pH 7.4); KD from the analyte response plotted against concentration. The following applies: both partners purified.

Data set [3] concerns the molecule itself. Description: co-sedimentation + other: fluorescence microscopy; 2 uM SNAP tagged rods labeled with BG-TMR, dialyzed into low salt buffer (50 mM NaCl, 50-200 mM Tris-HCl pH 8.0), 16 h at 4 C, pelleted at 100,000 g, on poly-L-lysine slides.

The text below walks through data of paper PMC3765318, “An efficient protocol for the purification and labeling of entire yeast septin rods from E.coli for quantitative in vitro experimentation” (BMC Biotechnology, 2013).

B1: Bni5 (natural protein, S. cerevisiae, UniProt P53890 1-448, looked up)
chain: MGLDQDKIKKRLSQIEIDINQMNQMIDENLQLVEPAEDEAVEDNVKDTGVVDAVKVAETALFSGNDGADSNPGDSAQVEEHKTAQVHIPTENEANKSTDDPSQLSVTQPFIAKEQITHTAIAIGDSYNSFVANSAGNEKAKDSCTENKEDGTVNIDQNRGEADVEIIENNDDEWEDEKSDVEEGRVDKGTEENSEIESFKSPMPQNNTLGGENKLDAELVLDKFSSANKDLDIQPQTIVVGGDNEYNHESSRLADQTPHDDNSENCPNRSGGSTPLDSQTKIFIPKKNSKEDGTNINHFNSDGDGQKKMANFETRRPTNPFRVISVSSNSNSRNGSRKSSLNKYDSPVSSPITSASELGSIAKLEKRHDYLSMKCIKLQKEIDYLNKMNAQGSLSMEDGKRLHRAVVKLQEYLDKKTKEKYEVGVLLSRHLRKQIDRGENGQFWIGTK
notes: Bni5, S. cerevisiae; BNI5 PCR amplified from genomic DNA, cloned in a pET15b derived expression plasmid; primers are in Additional file 1; also called purified Bni5 (analyte protein); 6his tagged Bni5; source: E. coli BL21(DE3), purified (IMAC, size exclusion chromatography)
For B1, in data set [1], the Kd (in general, the constant that tells how readily two partners part at equilibrium) amounted to 253 nM; the koff (usually the first-order rate constant of dissociation) turned out to be 0.037 s⁻¹; the kon (usually the second-order rate constant of association) turned out to be 51000 M⁻¹ s⁻¹. This molecule also returned a Kd in data set [2] of 313 nM.

B2: SNAP tagged septin rod labeled with BG-TMR (complex, S. cerevisiae)
chain 1: MSGIIDASSALRKRKHLKRGITFTVMIVGQSGSGRSTFINTLCGQQVVDTSTTILLPTDTSTEIDLQLREETVELEDDEGVKIQLNIIDTPGFGDSLDNSPSFEIISDYIRHQYDEILLEESRVRRNPRFKDGRVHCCLYLINPTGHGLKEIDVEFIRQLGSLVNIIPVISKSDSLTRDELKLNKKLIMEDIDRWNLPIYNFPFDEDEISDEDYETNMYLRTLLPFAIIGSNEVYEMGGDVGTIRGRKYPWGILDVEDSSISDFVILRNALLISHLHDLKNYTHEILYERYRTEALSGESVAAESIRPNLTKLNGSSSSSTTTRRNTNPFKQSNNINNDVLNPASDMHGQSTGENNETYMTREEQIRLEEERLKAFEERVQQELLLKRQELLQREKELREIEARLEKEAKIKQEE
chain 2: MSAATATAAPVPPPVGISNLPNQRYKIVNEEGGTFTVMLCGESGLGKTTFINTLFQTVLKRADGQQHRQEPIRKTVEIDITRALLEEKHFELRVNVIDTPGFGDNVNNNKAWQPLVDFIDDQHDSYMRQEQQPYRTKKFDLRVHAVLYFIRPTGHGLKPIDIETMKRLSTRANLIPVIAKADTLTAQELQQFKSRIRQVIEAQEIRIFTPPLDADSKEDAKSGSNPDSAAVEHARQLIEAMPFAIVGSEKKFDNGQGTQVVARKYPWGLVEIENDSHCDFRKLRALLLRTYLLDLISTTQEMHYETYRRLRLEGHENTGEGNEDFTLPAIAPARKLSHNPRYKEEENALKKYFTDQVKAEEQRFRQWEQNIVNERIRLNGDLEEIQGKVKKLEEQVKSLQVKKSHLK
chain 3: MSLKEEQVSIKQDPEQEERQHDQFNDVQIKQESQDHDGVDSQYTNGTQNDDSERFEAAESDVKVEPGLGMGITSSQSEKGQVLPDQPEIKFIRRQINGYVGFANLPKQWHRRSIKNGFSFNLLCVGPDGIGKTTLMKTLFNNDDIEANLVKDYEEELANDQEEEEGQGEGHENQSQEQRHKVKIKSYESVIEENGVKLNLNVIDTEGFGDFLNNDQKSWDPIIKEIDSRFDQYLDAENKINRHSINDKRIHACLYFIEPTGHYLKPLDLKFMQSVYEKCNLIPVIAKSDILTDEEILSFKKTIMNQLIQSNIELFKPPIYSNDDAENSHLSERLFSSLPYAVIGSNDIVENYSGNQVRGRSYPWGVIEVDNDNHSDFNLLKNLLIKQFMEELKERTSKILYENYRSSKLAKLGIKQDNSVFKEFDPISKQQEEKTLHEAKLAKLEIEMKTVFQQKVSEKEKKLQKSETELFARHKEMKEKLTKQLKALEDKKKQLELSINSASPNVNHSPVPTKKKGFLR
chain 4: MDPLSSVQPASYVGFDTITNQIEHRLLKKGFQFNIMVVGQSGLGKSTLINTLFASHLIDSATGDDISALPVTKTTEMKISTHTLVEDRVRLNINVIDTPGFGDFIDNSKAWEPIVKYIKEQHSQYLRKELTAQRERFITDTRVHAILYFLQPNGKELSRLDVEALKRLTEIANVIPVIGKSDTLTLDERTEFRELIQNEFEKYNFKIYPYDSEELTDEELELNRSVRSIIPFAVVGSENEIEINGETFRGRKTRWSAINVEDINQCDFVYLREFLIRTHLQDLIETTSYIHYEGFRARQLIALKENANSRSSAHMSSNAIQR
modifications: tetramethylrhodamine (TMR), covalently attached with BG-TMR to the SNAP tag
notes: Cdc11, S. cerevisiae septin; ORF amplified by PCR from genomic DNA; Cdc12, S. cerevisiae septin; Cdc3, S. cerevisiae septin; Cdc10, S. cerevisiae septin; also called SNAP tagged, TMR labeled septin filaments; TMR labeled septin filaments; source: E. coli BL21(DE3), four subunits co-expressed, purified (IMAC, Resource Q anion exchange), labeled with BG-TMR; copies: 2 + 2 + 2 + 2
For B2, the binding result in data set [3] is “binds”.
